What was measured:
[1] = biological target: isolated HOIP-RBR/UbcH5B~ubiquitin complex (UniProt Q96EP0); test: AUC
[2] = biological target: isolated HOIP-RBR/UbcH5B~ubiquitin complex (UniProt Q96EP0); test: ITC

| Substance | stoichiometry N [1] | Kd [2] [µM] |
| --- | --- | --- |
| isolated HOIP-RBR/UbcH5B~ubiquitin complex (from UniProt Q96EP0 696-1072; P62837 2-147; P0CG48 1-76) | 2 | – |
| mono-ubiquitin (untagged, native N- and C-termini) (from UniProt P0CG48 1-76) (natural protein) | – | > 50 |

— paper PMC4856479
